The values below come from US20200399386A1 (CELGENE, published 2020).

The target of experiment [1] is T1, human TNFRSF12A (human, UniProt Q9NP84 28-129).
T1 construct: whole, on cells; also called TWEAKR
T1 sequence (looked up): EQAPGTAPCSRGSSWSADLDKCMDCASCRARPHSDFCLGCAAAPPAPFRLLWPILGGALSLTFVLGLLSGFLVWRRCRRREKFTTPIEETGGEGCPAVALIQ
Put plainly: flow cytometry on Hek293 cells stably transfected with human TNFRSF12A. From the text:
(§1) FACS Analysis: FACs antibodies used in this study include: 1) LS-C106982-100 Mouse Monoclonal to Human TNFRSF12A-R-Phycoerythrin (PE) (LifeSpan BioSciences, Inc.); 2) EM901 has been previously characterized as a BCMA-binding antibody (Mab42; International Application Number WO2017/021450); 3) Ebiosciences anti-human IgG Fey-specific, labeled with PE; 4) Human IgG isotype control; 5) Anti-TACI antibody [1A1](Abcam); 6) BAFF Receptor antibody 8A7 (ThermoFisher); 7) BCMA antibody 19F2 (BioLegend). Each cell type (75,000 cells/well) was incubated with primary antibodies in FACs buffer (PBS containing 0.2% BSA) for 25 min in a 96 well plate. Cells were washed once with FACs buffer and incubated with 1:100 dilution secondary antibody for 25 min. After washing once, cells were fixed for 10 min with 1% paraformaldehyde, washed with FACs buffer and resuspended in 100 μL FACs buffer. Labeled cells were analyzed using an Attune NxT Flow Cytometer and data processed using FlowJo 10.0.8r1 (FLOWJO LLC), according to the manufacturer's instructions.
The reactivity of each antibody was monitored by FACs. An anti-TNFRSF12A antibody stained Hek293-TNFRSF12A cells, indicative of TNFRSF12A expression. […] Geometric means quantifying these binding interactions are shown (FIG. 3).

The target in experiment [2] is T2, human BCMA (human, UniProt Q02223 1-184).
T2 construct: whole, on cells; Transfected (C6-BCMA) and endogenous (myeloma lines) forms are treated as the same protein on cells; also called B-cell maturation antigen; TNFRSF17
T2 sequence (looked up): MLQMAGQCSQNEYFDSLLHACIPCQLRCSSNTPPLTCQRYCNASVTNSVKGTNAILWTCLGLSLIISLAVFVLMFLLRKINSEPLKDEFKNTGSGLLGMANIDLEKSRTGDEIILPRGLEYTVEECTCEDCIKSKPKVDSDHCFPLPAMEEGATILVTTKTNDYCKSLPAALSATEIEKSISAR
Put plainly: flow cytometry on NCIH929 cells.
Source text: as §1
The reactivity of each mAb was monitored by FACs. The EM901 antibody, that recognizes BCMA, robustly bound NCIH929 cells. […] Geometric means quantifying these binding interactions are shown (FIG. 4).
A general note: A flow cytometer gives signals particle by particle.

The target of experiment [3] is T2, human BCMA. Put plainly: flow cytometry on C6 cells stably transfected with human BCMA, 0.4 ug/ml antibody.
Source text: as §1
(§2) The reactivity of each antibody was monitored by FACs. […] Geometric mean values quantifying these binding interactions are included (FIG. 2).

The target of experiment [4] is T3, TACI (UniProt O14836 1-293, limits assumed).
T3 construct: whole, on cells
T3 sequence (looked up): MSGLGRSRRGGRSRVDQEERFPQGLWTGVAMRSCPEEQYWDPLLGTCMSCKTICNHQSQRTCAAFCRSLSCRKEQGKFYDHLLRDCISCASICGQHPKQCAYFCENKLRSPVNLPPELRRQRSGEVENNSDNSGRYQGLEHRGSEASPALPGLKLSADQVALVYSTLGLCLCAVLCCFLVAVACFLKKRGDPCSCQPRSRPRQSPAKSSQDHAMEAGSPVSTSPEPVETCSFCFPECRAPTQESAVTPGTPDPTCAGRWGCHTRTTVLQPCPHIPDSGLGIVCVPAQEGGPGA
The experiment in a line: flow cytometry, dose response on NUDHL1 cells.
Source text: as §1
(§3) The reactivity of each mAb was monitored by FACs. […] Geometric means quantifying these binding interactions are shown (FIG. 5).

For experiment [5], the target named is T4, BAFF receptor (UniProt Q96RJ3 1-184, limits assumed).
T4 construct: whole, on cells
T4 sequence (looked up): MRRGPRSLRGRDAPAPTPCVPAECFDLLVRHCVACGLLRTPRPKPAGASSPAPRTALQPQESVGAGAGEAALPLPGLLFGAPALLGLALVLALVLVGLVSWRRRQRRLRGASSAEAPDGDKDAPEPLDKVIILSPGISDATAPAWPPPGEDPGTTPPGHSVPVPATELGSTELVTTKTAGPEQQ
Put plainly: flow cytometry, dose response on NUDHL1 cells.
Source text: as §1, §3

Experiment [6] deals with T2, human BCMA. Put plainly: flow cytometry on C6 cells expressing human BCMA.
Source text: as §1, §2

B1: 319966 (antibody, IgG1, V domains shown)
VH: QLQLQESGPGLVKPSETLSLTCTVSGSSISRSNYYWGWIRQPPGKGLEWIGTFYYSGTTYYNPSLKSRVTISEDTSKKQLSLNLRSVTAADTAVYYCARPSGYTTSWGQGTLVTVSS
VL: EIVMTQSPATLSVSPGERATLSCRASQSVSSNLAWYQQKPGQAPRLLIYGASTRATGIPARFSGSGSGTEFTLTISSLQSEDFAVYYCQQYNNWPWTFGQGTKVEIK
notes: also called human IgG antibody 319966
On to B1, for which the binding result in experiment [1] was “no binding (tested: 0.4 ug/ml)”; in experiment [2], “binds”.

B2: 319883 (antibody, IgG1, V domains shown)
VH: QLQLQESGPGLVKPSDTLSLTCTVSGGSISSSNSYWGWIRQSPGRGLEWIGRIYYSGITHYNPSLKSRVTISVDTSKNQFSLKLSSVTAADTAVYYCASPYKWNDGNFFGWGQGTLVTVSS
VL: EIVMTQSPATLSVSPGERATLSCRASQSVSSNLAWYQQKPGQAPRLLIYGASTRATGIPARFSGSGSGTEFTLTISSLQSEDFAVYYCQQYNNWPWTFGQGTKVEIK
For the molecule B2, the figures for the binding result in experiment [1] and in experiment [3] were “no binding (tested: 0.4 ug/ml)” and “binds”, respectively.

B3: 320199 (antibody, IgG1, V domains shown)
VH: QLQLQESGPGLVKPSETLSLTCTVSGGSISSSNSYWGWIRQSPGRGLEWIGRIYYSGITHYNPSLKSRVTISVDTSKNQFSLKLSSVTAADTAVYYCASPYKWNDGNFFGWGQGTLVTVSS
VL: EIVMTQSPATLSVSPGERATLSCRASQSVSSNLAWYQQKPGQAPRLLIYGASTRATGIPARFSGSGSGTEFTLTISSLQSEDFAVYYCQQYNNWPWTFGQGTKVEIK
notes: also called human IgG antibody 320199
As to B3, the values for the binding result in experiment [1] and in experiment [3] were “no binding (tested: 0.4 ug/ml)” and “binds”, respectively.

B4: 320111 (antibody, IgG1, V domains shown)
VH: QLPLQESGPGLVKPSETLSLTCTVSGGSIRSSSYYWGWIRQPPGKGLEWIGTIYYSGSTYYNPSLKSRVTISVDTSKNQLSLKLSSVTAADTAVYYCARPYYDSSGYYYYWGQGTLVTVSS
VL: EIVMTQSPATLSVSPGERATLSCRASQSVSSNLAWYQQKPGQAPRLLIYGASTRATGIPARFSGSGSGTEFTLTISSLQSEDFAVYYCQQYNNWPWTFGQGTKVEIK
As for B4, the binding result is recorded as “no binding (tested: 0.4 ug/ml)” in experiment [1], “binds” in experiment [2], “no binding” in experiment [4] and “no binding” in experiment [5].

B5: 320262 (antibody, IgG1, V domains shown)
VH: QLQLQESGPGLVKPSETLSLTCTVSGGSISNSNYYWGWIRQPPGKGLEWIGNIYYSGRTYYTPSLKSRVTISEDTSKNQFSLKVRSVTVADTGVYYCARPDYYGSGTIAWGQGTLVTVSS
VL: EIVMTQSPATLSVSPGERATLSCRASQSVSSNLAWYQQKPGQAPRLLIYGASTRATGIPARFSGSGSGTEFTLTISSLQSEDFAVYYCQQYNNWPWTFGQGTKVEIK
B5: the binding result in experiment [1] is “no binding (tested: 0.4 ug/ml)”; in experiment [4], “no binding”; in experiment [5], “no binding”; in experiment [6] it was “binds”.
